Here are results for 5 molecules from publication PMC3498381, “Isolated Toll-like Receptor Transmembrane Domains Are Capable of Oligomerization” (PLoS ONE, 2012).

B1: TLR2 transmembrane domain (ToxR chimera) (domain or fragment)
chain: GNRASALVSGMCCALFLLILLTGVLCGSLIN
notes: flank encoded by the reading frame of the plasmid construct; Toll-like receptor 2 transmembrane domain, human, as identified by hydrophobic analysis; One molecule for the ToxR and the ToxR* form of this TMD; also called TLR2 TMD; wild type TLR2 TMD; source: E. coli FHK12, transformed with pTox7 or pTox6 plasmid, in the cells' membrane
B3: TLR1 transmembrane domain (ToxR chimera) (domain or fragment)
chain: GNRASITLLIVTIVATMLVLAVTVTSLCSYLGSLIN
notes: flank encoded by the reading frame of the plasmid construct; Toll-like receptor 1 transmembrane domain, human, as identified by hydrophobic analysis; One molecule for the ToxR and the ToxR* form of this TMD; also called TLR1 TMD; source: E. coli FHK12, transformed with pTox7 or pTox6 plasmid, in the cells' membrane
B4: TLR6 transmembrane domain (ToxR chimera) (domain or fragment)
chain: GNRASITLLIVTIGATMLVLAVTVTSLCIYLGSLIN
notes: flank encoded by the reading frame of the plasmid construct; Toll-like receptor 6 transmembrane domain, human, as identified by hydrophobic analysis; One molecule for the ToxR and the ToxR* form of this TMD; also called TLR6 TMD; source: E. coli FHK12, transformed with pTox7 or pTox6 plasmid, in the cells' membrane

For test [1], the target named is T1, TLR1 transmembrane domain (ToxR chimera).
T1 chain: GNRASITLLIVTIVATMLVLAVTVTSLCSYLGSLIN
The test is described as follows: heterotypic ToxR assay. The settings on record: chain shown with the change; competitor TLR1* (nonfunctional ToxR* chimera); PolyLeu* = 1.0; lower signal = more ToxR inhibition = more interaction; parent: est. 0.47; read off a plot.

Test [2] addresses T2, TLR10 transmembrane domain (ToxR chimera).
T2 chain: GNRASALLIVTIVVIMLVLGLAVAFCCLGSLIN
The test is described as follows: heterotypic ToxR assay. The settings on record: chain shown with the change; competitor TLR10* (nonfunctional ToxR* chimera); PolyLeu* = 1.0; lower signal = more ToxR inhibition = more interaction; parent: est. 0.41; read off a plot.

The target in test [3] is T3, TLR2 transmembrane domain (ToxR chimera).
T3 chain: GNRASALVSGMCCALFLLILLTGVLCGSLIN
As to the kind of experiment: heterotypic ToxR assay. The settings on record: chain shown with the change; competitor TLR2* (nonfunctional ToxR* chimera); PolyLeu* = 1.0; lower signal = more ToxR inhibition = more interaction; parent: est. 0.42; read off a plot.

The target of test [4] is T4, TLR4 transmembrane domain (ToxR chimera).
T4 chain: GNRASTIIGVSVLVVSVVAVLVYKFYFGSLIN
The test is described as follows: heterotypic ToxR assay. The settings on record: chain shown with the change; competitor TLR4* (nonfunctional ToxR* chimera); PolyLeu* = 1.0; lower signal = more ToxR inhibition = more interaction; parent: est. 0.90; read off a plot.

Test [5] concerns the target T5, TLR5 transmembrane domain (ToxR chimera).
T5 chain: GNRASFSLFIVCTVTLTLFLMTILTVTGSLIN
The test is described as follows: heterotypic ToxR assay. The settings on record: chain shown with the change; competitor TLR5* (nonfunctional ToxR* chimera); PolyLeu* = 1.0; lower signal = more ToxR inhibition = more interaction; parent: est. 0.53; read off a plot.

In test [6] the target is T6, TLR6 transmembrane domain (ToxR chimera).
T6 chain: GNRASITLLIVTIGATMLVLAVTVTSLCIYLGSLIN
As to the kind of experiment: heterotypic ToxR assay. The settings on record: chain shown with the change; competitor TLR6* (nonfunctional ToxR* chimera); PolyLeu* = 1.0; lower signal = more ToxR inhibition = more interaction; parent: est. 0.24; read off a plot.

In test [7] the target is B3. As to the kind of experiment: dominant-negative ToxR reporter assay; heterotypic; one TMD with functional ToxR (dominant phenotype) and one with non-functional ToxR* (negative phenotype) co-expressed in E. coli FHK12; interaction read as reduction of β-galactosidase signal; normalised to poly-Leu* and to expression levels. The settings on record: partners not purified. A general note: In a reporter assay the amount or activity of a reporter protein is the signal.

The target of test [8] is B4. The test is described as above. The settings on record: partners not purified.
For test [9], the target named is B1. Described as above. The settings on record: partners not purified.

Some results are limits rather than exact numbers.

Consider GNRASALVSVMCCALFLLILLTGVLCGSLIN [TLR2 transmembrane domain (ToxR chimera) G593V], for which the response (normalized Miller units) in test [1] came out at 0.58; in test [2], 0.5; in test [3], 0.44; in [4] it was 0.95; in test [5] it was 0.48; in test [6] it was 0.54.
Take B1: the “reduction in signal from the homotypic interaction” value (“reduction in signal” for short) in [7] and in test [8] was over 60% each time.

B2: TLR10 transmembrane domain (ToxR chimera) (domain or fragment, human)
chain: GNRASALLIVTIVVIMLVLGLAVAFCCLGSLIN
notes: flank encoded by the reading frame of the plasmid construct; Toll-like receptor 10 transmembrane domain, human, as identified by hydrophobic analysis; One molecule for the ToxR and the ToxR* form of this TMD; also called TLR10 TMD; source: E. coli FHK12, transformed with pTox7 or pTox6 plasmid, in the cells' membrane
Regarding B2, the “reduction in signal” value in test [7], in [9] and in test [8] was over 60% in each case.
For the molecule B3, the “reduction in signal” value in test [9] and in test [8] was over 60% each time.
B4: the “reduction in signal” value in test [7] and in [9] was over 60% in each case.
